# Measured values published in the RNAGym collection of RNA variant scans (doi:10.7554/elife.90254).
# B1: OR4K15 (parent)
# chain: GUUAACGGUCAUAGGCCAUGGAAACUAGGAGCACCAUUUCGCUGCCAGUGAAGAAAUGAACAAAGAAAAUCUGGGCCAGGCAGGCAUCAAAAGAAAUAGUCUUGCGCUCAACCAGAAAGUCUGUAAUCAUUUUAAGGGUA
# Variants of: B1
# Assay: self-cleavage, relative activity (ratio to wild type); higher = more cleavage; in vitro, sequencing; the parent is a self-cleaving ribozyme
row,Variant,self-cleavage
1,U12A A59U,0.95
2,A13G A140C,1.31
3,A96C U132C,0.83
4,A30G A111U,0.05
5,A89U U122A,0.6
6,G21A A33G,0.33
7,A23G U133C,1.35
8,A92G A117U,0.8
9,U9G A129G,0.65
10,U103C U127A,1.27
11,G14A A63U,1.23
12,A47G A91U,0.76
13,C10U U19C,1.34
14,A64G U72A,0.35
15,G83A A98U,1.82
16,A78C A94G,0.39
17,A18G G104A,0.02
18,A51G A52U,1.49
19,A52C A62G,0.91
20,A27C A135U,2.25
21,U12C A78G,0.31
22,U38C A60G,1.44
23,A60G A116G,0.5
24,G79A A117G,0.09

row,Variant,self-cleavage
1,C85U U131C,0.69
2,A24U A56G,2.25
3,A24U A114U,0.22
4,A36U A118G,1.05
5,A51G U139C,1.69
6,A82G U97C,0.5
7,U19A C25U,1.86
8,A27G A62U,1.15
9,A78U C128A,0.04
10,A116G G136U,0.74
11,C77U A125G,1.37
12,A18U C85U,1.37
13,A66G U103A,0.32
14,U38C U39C,1.64
15,A56G A94G,1.29
16,A24G G79A,0.18
17,A69G U102C,2.06
18,A33G U108A,0.02
19,A66G U122A,1.63
20,A27G A117U,0.53
21,U3C U122C,1.32
22,U26C A94G,0.95
23,A67G A135G,2.06
24,U43A A129G,0.65

row,Variant,self-cleavage
1,U19C A68U,1.36
2,A13G A117G,1.11
3,C34U U39C,1.5
4,A59G A86U,1.71
5,A23G A118C,0.5
6,G15A U120A,1.72
7,C40U A69G,0.94
8,C85U A125U,1.35
9,U97A A111G,0.03
10,U3C A23C,1.42
11,A30U A135U,1.23
12,A78U A96G,0.38
13,A5G A98G,0.7
14,A27U U139C,1.56
15,G8A A23G,1.58
16,U26A A110G,0.22
17,A52G A116U,0.12
18,A96G U130C,0.97
19,A51G A89C,1.6
20,A33C A51G,1.64
21,G21A A55G,1.29
22,A36U A60G,1.11
23,A55G A68C,2.11
24,A62U U120A,2.24

row,Variant,self-cleavage
1,U9A A23G,0.95
2,U100C C109U,0.89
3,A47G A90G,0.56
4,G21U U108A,0.02
5,C25U A60G,1.88
6,U9C G21A,1.38
7,A5G A59G,0.99
8,U26C A60U,1.43
9,A47U A86G,0.23
10,A126U,0.78
11,U26A A89G,1.53
12,A82U A96U,0.25
13,A114U U120C,0.03
14,C46A A134G,1.14
15,A47U A125G,0.28
16,A82G C109A,0.05
17,C81A A126G,0.17
18,A47U A126G,0.77
19,U2C U49C,1.34
20,U72G U132A,0.44
21,A67G A126U,0.87
22,A78U U122A,0.31
23,U9C U124C,1.25
24,U87A A114U,0.1

row,Variant,self-cleavage
1,G73A U131C,0.08
2,G20A U132C,1.92
3,U38C A91G,1.24
4,A13G G123C,1.35
5,U43C A63G,1.8
6,U19C A111U,0.07
7,U43A A140G,2.11
8,A11G U19A,1.08
9,A78U A116G,0.14
10,A59G U70A,0.56
11,A4G A62G,1.09
12,A11G A63C,0.97
13,U37A U100C,2.33
14,G7A A67G,1.61
15,A54G G123U,1.75
16,U9C A117U,1.04
17,U9C U43G,2.16
18,A33U G41A,1.52
19,A96C U100A,0.96
20,G15A A33G,0.94
21,A47U A140G,0.91
22,A62U U108A,0.02
23,U127C A140G,0.73
24,A94U A125C,1.08

row,Variant,self-cleavage
1,A24U A59G,1.28
2,U26C C76U,0.09
3,A89G A117G,1.73
4,A56G A98U,2.25
5,G73A A118U,0.04
6,A36G G41A,2.26
7,G14C U132C,1.04
8,A4G A27G,1.52
9,U12A U139C,1.59
10,A64G A125G,0.28
11,U38C A66U,1.32
12,A68G C128U,1.44
13,G1U A36G,1.26
14,A62G A117G,1.43
15,A78G A129C,0.11
16,A95G A111G,0.03
17,A11U A116U,0.5
18,A86U A125G,0.95
19,U9C U12C,1.27
20,U49C A91U,1.68
21,A51C A60G,2.31
22,A4G U132C,0.72
23,U3C U12C,1.24
24,A11U U49G,1.14

row,Variant,self-cleavage
1,C16U A30U,1
2,A62G G115U,0.07
3,A118U A135C,0.3
4,A63C U131C,1.99
5,U49C U100G,1.72
6,U3A A18G,1.11
7,A125G A129G,0.41
8,A33G A116G,0.24
9,A5G G74A,0.73
10,A117C A135G,0.2
11,A22G A117U,0.49
12,A23U A94U,0.3
13,A64G G106A,0.04
14,A63G A140U,1.52
15,A47U A66G,0.99
16,A23G A69U,1.12
17,A60G A92G,0.87
18,A55G C107A,0.02
19,G7U G137U,1.84
20,U38C U57C,0.83
21,U57C G106U,0.03
22,A68U U132G,0.9
23,U49C A110G,0.12
24,U9A A30U,1.22

row,Variant,self-cleavage
1,C42G A95G,1.87
2,A13C A60G,1.39
3,A4G A111G,0.1
4,A33G A47G,0.32
5,U43A A117G,2.17
6,A60G A67U,2.01
7,A13G C107A,0.19
8,A86G U127A,1.76
9,A63G U130G,1.92
10,U102C U133G,2.02
11,A67G A82U,0.07
12,U108C G115A,0
13,G1A A18G,1.58
14,A23G A95G,1.59
15,U9A C109A,0.42
16,A92U A114G,0.17
17,A98U A111G,0.01
18,A82G U87C,0.46
19,A89G A126G,0.6
20,A47G G99U,0.51
21,A62G A92U,1.01
22,A56G G99C,0.2
23,A23G A116U,0.3
24,A52U A89G,1.56

row,Variant,self-cleavage
1,G20A A116G,0.47
2,C40U A111G,0.02
3,A18C U108C,0.01
4,A4G C113U,0.19
5,A66G G136A,1.72
6,A30G U131C,0.95
7,A5G U108C,0.06
8,A60G A118G,1.07
9,A47G A55U,0.19
10,U3C U132G,0.36
11,A95G C105G,0.03
12,U70C A90G,0.83
13,A36U A67G,1.86
14,A52G A60G,1.32
15,A68U G119A,1.58
16,G48U A91G,1
17,C128U U130C,0.55
18,A5G A30G,1.03
19,C40A A114G,0.11
20,A67U A135G,2.46
21,A5G U57A,1.09
22,U12C U87C,0.75
23,A22U A118U,0.64
24,U9A A95G,1.18

row,Variant,self-cleavage
1,A68G A78U,0.13
2,A98G U133C,0.65
3,A33U G104A,0.01
4,U19C A91G,1.09
5,A18C U103C,0.86
6,G79U A96G,0.1
7,C85G A135G,0.85
8,U37C U120A,2.58
9,U49A G138U,1.69
10,G31A U39C,1.68
11,A55G A118G,1.23
12,A118G U127A,1.26
13,G8U A126G,0.32
14,U70C U102C,1.57
15,G41A U100C,1.52
16,U130C A135G,1.89
17,A5G U39A,1.16
18,A51G A63U,1.83
19,U72G A111U,0.04
20,A51G A60U,1.68
21,U57C A129U,1.47
22,A23U G79A,0.16
23,A36G A98G,1.54
24,U3C U57C,1.28

row,Variant,self-cleavage
1,A98G A118G,0.26
2,A11U G15A,1.97
3,A13U,1.11
4,U70C A89C,0.49
5,U70C A89U,1.17
6,A110G U130C,0.09
7,C32U U124C,1.15
8,G48U A114U,0.09
9,A55U A56G,1.38
10,A55U A56U,0.55
11,A94G U120C,1.02
12,A36G C85U,0.98
13,A98G A129G,0.17
14,A69G A89U,1.53
15,A13G U72C,0.54
16,A30G A140G,1.34
17,G7U C77A,0.23
18,A13G G75C,0.43
19,A66G U127C,1.11
20,G29U A62G,1.65
21,U49A A92G,1.28
22,G1U A114G,0.33
23,A60G C101A,0.23
24,U108C A111C,0.01

row,Variant,self-cleavage
1,U38A G50A,1.07
2,A56U A60G,0.43
3,A89U C109G,0.01
4,A27G U100C,1.8
5,A47U A111U,0.06
6,A33U C85A,2.05
7,U100C A116C,0.97
8,C6U A82G,0.72
9,C25U A86G,1.2
10,A60G A62G,1
11,C6U A62G,0.56
12,A92C U124C,0.52
13,U9C U38A,1.98
14,A63G C107G,0.01
15,G14A U19A,0.91
16,C107A A114U,0
17,A47G U120C,0.48
18,A13U U38C,0.61
19,A51G A125G,0.97
20,U2C U102C,0.64
21,A63G C109A,0.55
22,A114G G138A,0.76
23,U9A A51G,1.66
24,A114G A118G,0.36

row,Variant,self-cleavage
1,U87C C88A,0.75
2,A60U A89G,1.73
3,A68U A116G,1.07
4,A52U U127C,0.98
5,G115A U124C,0.05
6,A64U A89U,0.92
7,A13U A90C,1.69
8,U19C U57A,1.21
9,A52C,0.57
10,U43A A114G,0.86
11,A30G A62G,1.07
12,C10U A118G,0.33
13,A60G G115A,0.04
14,A68G A91U,1.44
15,A5U C6U,1.27
16,G44U A110G,0.18
17,A52U C113U,0.06
18,A89G A114U,0.12
19,U2A A18G,0.91
20,A60U G136A,1.51
21,A54G A60U,1.59
22,A52G A96U,1.86
23,U43C U120A,2.06
24,U49C U130C,0.77

row,Variant,self-cleavage
1,A78U A92G,0.29
2,A23C A114U,0.01
3,G29U A111G,0.05
4,A4G A56U,0.65
5,A89U A96G,1.73
6,G28U A30G,1.48
7,A98G U127C,0.39
8,A69G A117G,1.44
9,A4G A114G,0.76
10,A30G A125G,0.87
11,U38A A56C,1.55
12,G28A A140G,2
13,A33G,0.82
14,U38C C61U,1.86
15,A11U G58U,0.86
16,U19A A111G,0.02
17,U9G U130C,0.7
18,U49C G73A,0.28
19,U2G A11G,1.05
20,G50U A63G,0.92
21,A11G U12C,1.07
22,A33U A91G,0.6
